This data set can be described thus: yeast display, Sf9 membrane polyspecificity reagent, FACS + sequencing; frameworks hold sequencing errors. The essentials:
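Using colony PCR, genes from sorted yeast display clones were amplified, then sequenced on MiSeq at 2 × 250 and filtered by CDR length. The clones had been stained with 10% biotinylated, detergent-solubilized Sf9 membrane reagent for 1 hour at 4 °C and sorted by FACS into low and high (top ~1%) gates on anti-HA and streptavidin fluorescence. Polyreactivity labels come from the gate of origin.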
In the case of “QVQLVESGGGLVKAGGSLRLSCAASGRTFQVYDMGWYRQAPGKERELVAGITRAGSTYYADSVKGRFTISRDNAKNSVYLQMNRLKPEDSAVYYCAASRWHGYNYWGQGTQVTVSS”, the “polyreactivity (PSR sort gate)” value is on record as “high polyreactivity”.

Turning to “QVQLVESGGGLVQAGGSLRISCAASGSTFRRYPIGWYRQAPGKEREFVAVITSSGVITYYADSVKGRFTISRDNAKNTVYLQMNSLKPEDTAVYYCATDARSMDYWGQGTQVTVSS”, the “polyreactivity (PSR sort gate)” value is “low polyreactivity”.

As to “QVQLVESGGGLVQAGGSLRLSCAAAGRSFGRNAMGWYRQAPGKERELVAAISTSSGSTYYADSVKGRFTISRDNAKNTVYLQMNSLKPEDTAGYYCAARDDSYRRYEYGYWGQGTQVTVSS”, the “polyreactivity (PSR sort gate)” value is “high polyreactivity”.

On to “QVQLVESGGGLVQAGGSLRLSFAASGRIFYSNARGWYRQAPGKERELVATITRSSGITYYADSVKGRFTISRDNAKNTVYLQMNSLKTEDTAVYYWADRYSNRWARVSGYDYWGQGTQVTVSS”, for which the “polyreactivity (PSR sort gate)” value is on record as “high polyreactivity”.

For the sequence “QVQLVESGGGIVQAGGSLRLSCAASGIIFDINSMGWYRQAPGKERELVAAITTSVDSTYYAHSVKGRFTISRDNAKNTVYLQMYSLQPEDTAVYYCSVSFVQFTQYDYWGQGTQVTVSS”, the “polyreactivity (PSR sort gate)” value is listed as “low polyreactivity”.

As for “QVQLVESGGGLVQAGGSLRLSCAASGRIFAPYAMGWYRQAPGKEREVVAGITRGGITNYADSVKGRFTISRDNAKNTVYLQMNSLKPEDTAVYYCATVVNRRGFYQYYYWGQGTQVTVSS”, the “polyreactivity (PSR sort gate)” value is on record as “high polyreactivity”.

“QVQLVESGGGLVQAGGSLRLSCAASGFIFDYYAMGWYRQAPGKERELVAAITRDGGGTYYADSVKGRFTISRDNAKNTVYFQMNSLKPEDTAVYYCAARTAYYHGSKYYYRGQGTQVTVSS”: the “polyreactivity (PSR sort gate)” value was “high polyreactivity”.

“QDQLVESVGGLVQAGGSLRLSCAASGSIFRLYAMGWYRHAPGKERELVAGITSSDGSTYADSVKGRFTISRDNAKNTVYLQMNSLKPEDTAVYYCAARGYVRWYNRYDYWGQGTQVTVSS”: the “polyreactivity (PSR sort gate)” value is reported as “low polyreactivity”.

As for “QVHLVESGGGLVQAGGSHRITCAASGITFVGNARGWYRQAPGKERELVAAIRWSSGRTYYADSVKGRFTISRDNAKNTVYLQMNSLKPEDTAVYYCATDYHYSQYYRFYYWGQGTQVTVSS”, the “polyreactivity (PSR sort gate)” value is “high polyreactivity”.

With “QVQLVESGGGLVQAGGSLRLSCAASGFTIWDYAMGWYRQAPGKERELVAAISRRGGTTYYADSVKGRFTISRDNAKNTVYLQMNSLKPEETAVYYCATYSYTWLNYYWGQGTQVTVSS”, the “polyreactivity (PSR sort gate)” value was “high polyreactivity”.

With “QVQLVESGGGLVQAGGSLRLSCAASGFIFPANAMGWSRQAPGKEREFVAAISRSGGTTYYADSVKGRFTISRDHAKNTVYLQMNSLKPEDTAVYYCAARYAIGPGYDYWGQGTQVTVSS”, the “polyreactivity (PSR sort gate)” value is “high polyreactivity”.

Turning to “QVQLVESGGGLVQAGGSLRLSCAASGIILPKYSMGWYRQAPGKERELVAAITRSGGSTYYADSVKGRFTISRDNAKNTVYLQMNSLKPEDTAVYYCAARAANPTRTARYNYWGHGTQVTVSS”, the “polyreactivity (PSR sort gate)” value is reported as “high polyreactivity”.

Take “QVQLVESGGGLVQAGGSLRLSCAASGRIFVRYARGWYSQAPGKERELVAAITSGGRTSYADSVKGRFTISRDNAKNTVYLQMNSLKPEDTAVYYWNVVSRNSIRFDYWGQGTQVTVSS”: the “polyreactivity (PSR sort gate)” value is “high polyreactivity”.

Take “QVQLVESGVGLVQAGGSLRLSCAASGSIFDANTMGWYRQAPGKERELVAAITGSGASTYYADSVKGRFTISRDNAKNTVYLQMNSLKPEDSAVYYCAARRYTSYYKDGWYAYYYWGQGTQVTVSS”: the “polyreactivity (PSR sort gate)” value is listed as “high polyreactivity”.

Take “QVQLVESGGGLVQAGGSLRLSCAASGSTFRSNAMGWYRQAPGKERELVASINWSGDSTYYADSVKGRFTISRDNAKNTVYLQMNSLKPEDTAVYYCNAVVDTTEYPYEYDYWGQGTQVTVSS”: the “polyreactivity (PSR sort gate)” value is reported as “low polyreactivity”.

With “QVQLVESGGGLVQAGGSLRLSCAASGRTFTGNAMGWYRQAPGKERELVAAISFSGASTYYADSVKGRFTISRDNAKNTVYLQMNSLKPEDTAVYYCNADSRYRSFDYWGQGTQVTVSS”, the “polyreactivity (PSR sort gate)” value was “high polyreactivity”.

With “QVQLVESGGGLVQAGGSLRLSCAASGIIFKSNAMGWSRQAPGKERELVAAIRSSGSTNYADSVKGRFTISRDNAKNTVYLQLNSLKPEDTAVYYCAVSSWSVWGHYYWGQGTQVTVSS”, the “polyreactivity (PSR sort gate)” value is “high polyreactivity”.

“QVQLVESGGGLVQAGGSLRLSCASSGSTFNPYAMGWYRQAPGKERELVAAISRGGRTKYADSVKGRFSISRDNAKNTVYCHMNSLKPEDTAVYYCAARQRSRSRYDYWGQVTQVTVSS”: the “polyreactivity (PSR sort gate)” value is listed as “high polyreactivity”.

With “QVQLVESGGGLVQAGGSLRLSCAASGRTFQFYVMGWYRQAPGKERELVASIRSGGSTNYADSVKGRFTISRDNAKNTVYLQMNSLKPEDTAVYYCAARVASPYYRYDYWGQGTQVTVSS”, the “polyreactivity (PSR sort gate)” value was “low polyreactivity”.

With “QVQLVESGGGLVQAGGTLRLSCAASGGIIAINAMVWYRQAPGKERELVAAISWGDGITYYADSVKGRFTISRDNAKNTVYLQMNSLKPEDTAVYYCAADEDEYRGGDETWGQGSQVTVSS”, the “polyreactivity (PSR sort gate)” value is recorded as “low polyreactivity”.

For “QVQLVESGGGLVQAGGSLRLSCAASGFILGQYAMGWYRQAPGKERELVAAISGSSSTTYADCVKGRFTISRDNAKNTVYLQMNSLKPEDTAVYYCAAYYWYVTYFRREIAYEYWGQGTQVTVSS”, the “polyreactivity (PSR sort gate)” value is given as “low polyreactivity”.

For “QVQLVESGGGLVQAGGSLRLSCAASGSTFTPNAMGWYRQVPGKERELVASITIGGSTYADSVKGRFTISRDNAKNTVYLQMNSLKPEDTAVYYCNADWNWYPFLYSRMDYWGQGTQVTVSS”, the “polyreactivity (PSR sort gate)” value is “low polyreactivity”.

Turning to “QVHLVESGGGLVQAGGSLRLSCAASGRIFTYYAMAWYRQAPGKEREMVAGITGSGASTYYADSVKGRFTISRDNAKNTVYLQMNSLKPEDTAVYYCNAPYVIRPFRGRYDYWGQGTQVTVSS”, the “polyreactivity (PSR sort gate)” value is on record as “high polyreactivity”.

“QVQLVESGGGLVQAGGILRLSCAASGFIFALNAMGWYRQAPGKERELVATIDSTSGSTYYADSVKGRFTISRDNAKNTVYLQMNSLKPEDTAVYYCAVVHAQSAPMDYWGQGTQVTVSS”: the “polyreactivity (PSR sort gate)” value is listed as “low polyreactivity”.

Take “QVQLVESGGGLVQAGGSLRLSCAASGRISVRIYAMGWYRQAPGKERELVAIIARSGGSTYYADSVKGRFTISRDNAKHTVYLPMNSLKPADTAVYYCAAGYRTRRGLGYYYWGQGTQVTVSS”: the “polyreactivity (PSR sort gate)” value was “high polyreactivity”.

On to “QVQLVESGGGLVQAGGSLRLSCAASGRIFTIYTMGWYRQAPGKERELVAAISVNGGRTYYADSVKGRFTISRDNAKNTVYLQMNSLKPEDTAVYYCAARRRFGYHQQRYDYWGQGTQVTVSS”, for which the “polyreactivity (PSR sort gate)” value is listed as “high polyreactivity”.

For the sequence “QVQLVESGGGLVQAGGSLRLSCDASGFTLAWNARGWSRQAPRKERELVATISRSGSSTSYADSVKGRFTISRDNAKNTVYLQMNSLKPEDTAVYYCAKSGRYGFWGQGTQVTVSS”, the “polyreactivity (PSR sort gate)” value is given as “high polyreactivity”.

On to “QVQLVESGGGLVQAGGSLRLSCAASGSTFAINAMGWYRQAPGTERELVAAIRYSTGRTYYADSVKGRFTISRDNAKNTVYLQMNSLKPEDTAVYYCAALGFTKYGSRFDYWGQGTQVTVSS”, for which the “polyreactivity (PSR sort gate)” value is recorded as “high polyreactivity”.

In the case of “QLQLEESGGGFVQAGGSLRISCAASGAIFLSYAMGWYRQAAAKEMEFVAGISYSGGTTYYADSVKGRFTISRDNAKNTVYLQMNSLKQEVTAVYYCAKRTAVWTSGGYRKRDYWGQATQVTVSS”, the “polyreactivity (PSR sort gate)” value is “high polyreactivity”.

Turning to “QVQLVESGGGLVQAGGSLRLSCAASGRIFSPYAMGWYRQAPGKERELVAAISYDDGITYYADSVKGRFTISRDNAKNTVYLQMNCLKPEDTAVYYCAADSVTRPAGDYWGQGTQVTVSS”, the “polyreactivity (PSR sort gate)” value is listed as “low polyreactivity”.

Regarding “QVQLVESGGGLVQAGGSLRLSCAASGRIFDNYAMGWYRQAPGKERELVAAITSTGRTNYADSVKGRFTISRDNAKYTVYLQMYSLKPEDTAVYYCNVDYQYARSGHANAYEYYYWGQGTQVTVSS”, the “polyreactivity (PSR sort gate)” value is on record as “low polyreactivity”.

As for “QVQLVESGGGLVQAGGSLRLSCAASGITFVRNAMGWYRQAPGKEREFVAAISGSGVSTYADSVKGRFTISRDNAKNTVYLQMNSLNPEDTAVYYCARDFPWSYAWYDYWGQGTQVTVSS”, the “polyreactivity (PSR sort gate)” value is reported as “low polyreactivity”.

Take “QVQLVESGGGLVQAGGSLRLSCAASGFTFDVYTMGWYRQAPGKEREFVAAISGSGGSTYYADSVKGRFTISRDNAKNTVYLQMNSLKPEDTAVYYCNAGLSRVSHRHRSHSLQGYDYWGQGTQVTVSS”: the “polyreactivity (PSR sort gate)” value is on record as “low polyreactivity”.

For “QVQLVESGGGLVQAGGSLRLSCAASGSTFRYNAMGWYRQEPGKERELVAAISSSGGSTRYADSVKGRFTISRDNAKNTVYLQMNSLKPEDTAVYHCAVRFYDWRYYYWGQGTQVTVSS”, the “polyreactivity (PSR sort gate)” value is recorded as “high polyreactivity”.

As to “QVQLVESGGGLVQAGGSLRLSCAASGFTFRYYAMGWYRQAPGKERELVAAINSGDSTNYADSVKGRFTISRDNAKNTVYLQMNSLKPEDTAVYYCATRLWKIPGAMYYWGQGTQVTVSS”, the “polyreactivity (PSR sort gate)” value is “high polyreactivity”.

Take “QVQLVESGGGLDQAGGSLRLSCAASGITFGFYTMGWYRQAPGKERELVAAITSGGSTSYADSVKGRFTISRDNAKNTVYLQMNSLKPEDTAVYYCAADYLYPFPPYQYWKQSYDYWGQGTQVTVSS”: the “polyreactivity (PSR sort gate)” value is on record as “low polyreactivity”.

Consider “QVQLVESGGGLVQAGGSLRLSCAASGSTFPGYAMGWYRQAPGKERELVASIYTGGSTYYADSVKGRFTISRDNAKNTVYLQMNSLKPEDTAVYYCAADSYNVSSLLYYWGQGTQVTVSS”, for which the “polyreactivity (PSR sort gate)” value is listed as “low polyreactivity”.

Consider “QVQLVESGGGLVQAGGSLRLSCVASGRIFARNAMGWYRQAPGKERELVAAISGSGVRTYYADSVKGRFTISRDNAKNTVYLQMNSLKPEDTAVYYCNAVSGGHRSRYGYWGQGTQVTVSS”, for which the “polyreactivity (PSR sort gate)” value is listed as “high polyreactivity”.

Take “QVQLVESGGGLVQAGGSLRLSCAASGFIFTSYAMGWYRQAPGKERELVAAITRSGGRTYYADSVKGRFTISRDNAKNTVYLQMNSLKPEDTAVYYCAAVTFYQSPARGYWGQGTQVTVSS”: the “polyreactivity (PSR sort gate)” value is given as “high polyreactivity”.

“QVQLVDSGGGLVQAGGSLRLSCAASGSTLNSYVIGWYRQAPGKERELVATIRSGSSTNYADSVKGRFTISRDNAKNTVYLQMNSLKPEDTAVYYCAADAYSLCYDSWGQGTQVTVSS”: the “polyreactivity (PSR sort gate)” value is “low polyreactivity”.

Take “QVQLVESGGGLVQAGGSLRLSCAASGFTFYRYAMGWYRQAPGKERELVAAITSRSGITYYADSVKGRFTISRDNAKNTVYLQMNSLKPEDTAVYYCGAYVSRSTEFDYGYWGQGTQVTVSS”: the “polyreactivity (PSR sort gate)” value is “high polyreactivity”.

For the origin of these results see the nanobody polyreactivity screen of Harvey et al. (2022).
